Laboratory results taken from article doi:10.1101/2022.05.04.490663 (bioRxiv, 2022).
Numbering of substitutions follows the chain as printed. Numbers in names are those of the source.

T1: Spt6 (239-1451), untagged (S. cerevisiae, UniProt P23615 239-1451)
T1 sequence (looked up): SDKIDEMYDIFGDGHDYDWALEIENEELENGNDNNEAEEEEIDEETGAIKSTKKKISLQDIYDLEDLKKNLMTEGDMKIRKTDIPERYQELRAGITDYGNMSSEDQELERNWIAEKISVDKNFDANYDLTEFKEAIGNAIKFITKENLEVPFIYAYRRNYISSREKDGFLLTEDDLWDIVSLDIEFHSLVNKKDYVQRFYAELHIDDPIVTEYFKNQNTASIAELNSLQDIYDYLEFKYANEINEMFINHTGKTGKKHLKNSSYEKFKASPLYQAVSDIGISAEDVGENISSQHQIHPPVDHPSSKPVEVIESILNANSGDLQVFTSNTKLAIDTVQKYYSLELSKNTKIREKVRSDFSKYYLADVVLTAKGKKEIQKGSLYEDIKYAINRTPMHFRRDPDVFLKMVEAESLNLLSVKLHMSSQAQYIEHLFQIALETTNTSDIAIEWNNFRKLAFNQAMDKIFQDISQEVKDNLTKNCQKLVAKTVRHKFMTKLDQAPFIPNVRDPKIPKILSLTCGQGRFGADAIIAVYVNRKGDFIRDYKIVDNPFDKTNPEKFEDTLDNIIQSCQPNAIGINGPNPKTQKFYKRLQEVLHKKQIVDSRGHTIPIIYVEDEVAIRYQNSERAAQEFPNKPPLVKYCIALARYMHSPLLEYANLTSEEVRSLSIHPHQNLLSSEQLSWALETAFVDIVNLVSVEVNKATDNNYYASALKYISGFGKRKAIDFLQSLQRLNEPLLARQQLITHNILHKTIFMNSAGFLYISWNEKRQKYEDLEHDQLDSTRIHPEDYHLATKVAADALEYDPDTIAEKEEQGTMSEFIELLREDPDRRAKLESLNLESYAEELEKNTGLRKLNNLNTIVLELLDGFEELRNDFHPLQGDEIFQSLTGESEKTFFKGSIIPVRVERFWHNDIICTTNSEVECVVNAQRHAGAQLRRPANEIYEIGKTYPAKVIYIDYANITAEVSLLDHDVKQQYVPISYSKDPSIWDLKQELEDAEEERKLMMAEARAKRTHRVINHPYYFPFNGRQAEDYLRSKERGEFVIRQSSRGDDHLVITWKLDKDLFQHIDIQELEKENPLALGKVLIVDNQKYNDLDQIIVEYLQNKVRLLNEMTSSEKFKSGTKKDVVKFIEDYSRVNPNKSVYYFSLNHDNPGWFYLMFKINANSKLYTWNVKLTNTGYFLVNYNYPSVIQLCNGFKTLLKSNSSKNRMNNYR

T2: 10xHis-mRuby2-Spt6 (239-1451) (S. cerevisiae, UniProt P23615 239-1451)
T2 sequence (looked up): T1 sequence (looked up)

B1: 10xHis-mClover-Cdc73 (full-length Cdc73) (natural protein, S. cerevisiae, UniProt Q06697 1-393, looked up)
chain: MANSLDRLREHLKNGDKLVLKNNEGQSTDDITKATMVETLSSDGSTQDSFPLNEETEIEIDGSLVQLRIIVHCWMNKDSSAADYLADCQNKQLTNVSFLQRTDLINWLSGNTESSQYLKAPGQKGETSDKVDIENKTLAGELSTVKSTTSASLENDSEVSDPVVVETMKHERILVDHNSALRGAKPINFGYLIKDAELKLVQSIKGSLRGSKLPPGHKGAHGRISKTNGSSGGPRKDPIILIPSAASSILTVANIKQFLLESKYVNPRNLPSVPNGLVNIEKNFERISRPIRFIIVDNTRMFTKPEYWDRVVAIFTTGHTWQFNNYQWNSPQELFQRCKGYYFHFAGDSVPQHVQQWNVEKVELDKNKRFKDVEVVRYFWHSLEKELISRGYR
B2: 10xHis-mClover-Cdc73 with the W321A substitution (natural protein, S. cerevisiae, UniProt Q06697 1-393, looked up)
chain: B1 chain with W321A

Key:
[1] = molecular target: T1, Spt6 (239-1451), untagged; assay: fluorescence polarisation
[2] = molecular target: T2, 10xHis-mRuby2-Spt6 (239-1451); assay: native gel or EMSA

| Binder | Kd [1] [nM] | Kd [2] [nM] | binding result [2] |
| --- | --- | --- | --- |
| B1 | 770 | ~320 |  |
| B2 |  |  | binds |
